In patent US20110126299A1 (published 2011):

Target: T1, λ2^315 Ig L-chain (idiotype, Id) peptide on I-E^d (mouse)
T1 peptide: ALWFRNHFVFG
Assay: activation reporter or marker

binding result: recognises
B1: 4B2A1 TCR (TCR, V domains shown)
Valpha: QQKVQQSPESLIVPEGAMTSLNCTFSDSASQYFAWYRQQSGKAPKALMSIFSNGEKEEGRFTIHLNKASLHFSLHIRDSQPSDSALYLCAVRGPNTGNYKYVFGAGTRLKVIA
Vbeta: EAAVTQSPRNKVAVTGGKVTLSCNQTNNHNNMYWYRQDTGHGLRLIHYSYGAGSTEKGDIPDGYKASRPSQENFSLILELATPSQTSVYFCASGDAGQGHSDYTFGSGTRLLVI
